Laboratory results: the Human Domainome abundance scans (Beltran et al. 2025)
± gives the uncertainty stated by the source.

B1: SWI/SNF complex subunit SMARCC1, residues 620 to 663; numbered along this chain, Q92922 (parent)
chain: GREWTEQETLLLLEALEMYKDDWNKVSEHVGSRTQDECILHFLR

Variants of: B1
Test: abundance fitness (aPCA) (normalised: wild type 0, dead -1); higher = more abundant; growth selection in yeast, the domain comes from the species named
Conditions: Homo sapiens

Variant | abundance fitness
GREWTEQETLLLLEALCMYKDDWNKVSEHVGSRTQDECILHFLR [E17C] | -0.763 ± 0.19
GREWTEQETLLLLEALIMYKDDWNKVSEHVGSRTQDECILHFLR [E17I] | -0.553 ± 0.2
GREWTEQETLLLLEALWMYKDDWNKVSEHVGSRTQDECILHFLR [E17W] | -0.716 ± 0.14
GREWTEQETLLLLEALSMYKDDWNKVSEHVGSRTQDECILHFLR [E17S] | -0.308 ± 0.082
GREWTEQETLLLLEALTMYKDDWNKVSEHVGSRTQDECILHFLR [E17T] | -0.175 ± 0.14
GREWTEQETLLLLEALKMYKDDWNKVSEHVGSRTQDECILHFLR [E17K] | 0.139 ± 0.14
GREWTEQETLLLLEALVMYKDDWNKVSEHVGSRTQDECILHFLR [E17V] | -0.503 ± 0.1
GREWTEQETLLLLEALRMYKDDWNKVSEHVGSRTQDECILHFLR [E17R] | -0.007 ± 0.058
GREWTEQETLLLLEALGMYKDDWNKVSEHVGSRTQDECILHFLR [E17G] | -0.213 ± 0.064
GREWTEQETLLLLEALDMYKDDWNKVSEHVGSRTQDECILHFLR [E17D] | 0.054 ± 0.092
GREWTEQETLLLLIALEMYKDDWNKVSEHVGSRTQDECILHFLR [E14I] | -0.97 ± 0.44
GREWTEQETLLLLDALEMYKDDWNKVSEHVGSRTQDECILHFLR [E14D] | -0.177 ± 0.27
GREWTEQETLLLLRALEMYKDDWNKVSEHVGSRTQDECILHFLR [E14R] | -0.28 ± 0.12
GREWTEQETLLLLCALEMYKDDWNKVSEHVGSRTQDECILHFLR [E14C] | -0.684 ± 0.16
GREWTEQETLLLLGALEMYKDDWNKVSEHVGSRTQDECILHFLR [E14G] | -0.27 ± 0.075
GREWTEQETLLLLLALEMYKDDWNKVSEHVGSRTQDECILHFLR [E14L] | -0.549 ± 0.1
GREWTEQETLLLLPALEMYKDDWNKVSEHVGSRTQDECILHFLR [E14P] | -1.15 ± 0.48
GREWTEQETLLLLAALEMYKDDWNKVSEHVGSRTQDECILHFLR [E14A] | 0.007 ± 0.072
GREWTEQETLLLLVALEMYKDDWNKVSEHVGSRTQDECILHFLR [E14V] | -0.552 ± 0.17
GREWTEQETLLLLNALEMYKDDWNKVSEHVGSRTQDECILHFLR [E14N] | -0.164 ± 0.12

Variant | abundance fitness
GREWTEQETLLLLMALEMYKDDWNKVSEHVGSRTQDECILHFLR [E14M] | -0.267 ± 0.096
GREWTEQETLLLLHALEMYKDDWNKVSEHVGSRTQDECILHFLR [E14H] | -0.311 ± 0.1
GREWTEQETLLLLQALEMYKDDWNKVSEHVGSRTQDECILHFLR [E14Q] | -0.045 ± 0.1
GREWTEQETLLLLKALEMYKDDWNKVSEHVGSRTQDECILHFLR [E14K] | -0.006 ± 0.12
GREWTEQETLLLLYALEMYKDDWNKVSEHVGSRTQDECILHFLR [E14Y] | -0.428 ± 0.2
GREWTEQETLLLLTALEMYKDDWNKVSEHVGSRTQDECILHFLR [E14T] | -0.18 ± 0.091
GREWTEQETLLLLSALEMYKDDWNKVSEHVGSRTQDECILHFLR [E14S] | -0.27 ± 0.068
GREWTEQETLLLLEALEFYKDDWNKVSEHVGSRTQDECILHFLR [M18F] | -0.1 ± 0.094
GREWTEQETLLLLEALEDYKDDWNKVSEHVGSRTQDECILHFLR [M18D] | -0.097 ± 0.25
GREWTEQETLLLLEALEAYKDDWNKVSEHVGSRTQDECILHFLR [M18A] | 0.115 ± 0.069
GREWTEQETLLLLEALEHYKDDWNKVSEHVGSRTQDECILHFLR [M18H] | -0.04 ± 0.084
GREWTEQETLLLLEALEGYKDDWNKVSEHVGSRTQDECILHFLR [M18G] | -0.24 ± 0.074
GREWTEQETLLLLEALEEYKDDWNKVSEHVGSRTQDECILHFLR [M18E] | -0.135 ± 0.11
GREWTEQETLLLLEALECYKDDWNKVSEHVGSRTQDECILHFLR [M18C] | -0.158 ± 0.14
GREWTEQETLLLLEYLEMYKDDWNKVSEHVGSRTQDECILHFLR [A15Y] | -0.746 ± 0.24
GREWTEQETLLLLERLEMYKDDWNKVSEHVGSRTQDECILHFLR [A15R] | -0.82 ± 0.14
GREWTEQETLLLLEQLEMYKDDWNKVSEHVGSRTQDECILHFLR [A15Q] | -0.72 ± 0.34
GREWTEQETLLLLEDLEMYKDDWNKVSEHVGSRTQDECILHFLR [A15D] | -0.562 ± 0.44
GREWTEQETLLLLELLEMYKDDWNKVSEHVGSRTQDECILHFLR [A15L] | -0.926 ± 0.13
GREWTEQETLLLLEHLEMYKDDWNKVSEHVGSRTQDECILHFLR [A15H] | -0.707 ± 0.18

Variant | abundance fitness
GREWTEQETLLLLESLEMYKDDWNKVSEHVGSRTQDECILHFLR [A15S] | -0.043 ± 0.058
GREWTEQETLLLLEGLEMYKDDWNKVSEHVGSRTQDECILHFLR [A15G] | 0.03 ± 0.056
GREWTEQETLLLLEELEMYKDDWNKVSEHVGSRTQDECILHFLR [A15E] | -0.716 ± 0.16
GREWTEQETLLLLEFLEMYKDDWNKVSEHVGSRTQDECILHFLR [A15F] | -0.616 ± 0.29
GREWTEQETLLLLEPLEMYKDDWNKVSEHVGSRTQDECILHFLR [A15P] | -1.19 ± 0.34
GREWTEQETLLLLEKLEMYKDDWNKVSEHVGSRTQDECILHFLR [A15K] | -0.925 ± 0.24
GREWTEQETLLLLEVLEMYKDDWNKVSEHVGSRTQDECILHFLR [A15V] | -0.886 ± 0.11
GREWTEQETLLLAEALEMYKDDWNKVSEHVGSRTQDECILHFLR [L13A] | 0.285 ± 0.18
GREWTEQETLLLSEALEMYKDDWNKVSEHVGSRTQDECILHFLR [L13S] | -0.259 ± 0.31
GREWTEQETLLLREALEMYKDDWNKVSEHVGSRTQDECILHFLR [L13R] | 0.127 ± 0.11
GREWTEQETLLLDEALEMYKDDWNKVSEHVGSRTQDECILHFLR [L13D] | 0.01 ± 0.22
GREWTEQETLLLVEALEMYKDDWNKVSEHVGSRTQDECILHFLR [L13V] | -0.126 ± 0.18
GREWTEQETLLLWEALEMYKDDWNKVSEHVGSRTQDECILHFLR [L13W] | -0.314 ± 0.45
GREWTEQETLLLYEALEMYKDDWNKVSEHVGSRTQDECILHFLR [L13Y] | -0.229 ± 0.42
GREWTEQETLLLTEALEMYKDDWNKVSEHVGSRTQDECILHFLR [L13T] | 0.531 ± 0.24
GREWTEQETLLLQEALEMYKDDWNKVSEHVGSRTQDECILHFLR [L13Q] | -0.197 ± 0.18
GREWTEQETLLLHEALEMYKDDWNKVSEHVGSRTQDECILHFLR [L13H] | -0.166 ± 0.12
GREWTEQETLLLIEALEMYKDDWNKVSEHVGSRTQDECILHFLR [L13I] | 0.044 ± 0.24
